Changes are numbered by the printed parent chain.
B1: PSA-conjugated 6E10 IgG anti-Aβ antibody (antibody, V domains shown)
VH: EVQLQQSGAELVKPGASVKLSCTASGFNIKDTYIHWVKQRPEQGLEWIGRFDPVNVNTRYDSRFRGKATITSDASSNTAYLHLNSLTSEDTAVYYCSRSYYNGRRRFTYWGQGTLVTVSA
VL: DIVMTQSPSSLTVTAGEKVALTCKASQSLLSSGNQKNYLTWYQQKPGQPPKLLIYWASIRESGVPDRFTGSGSGTFFTLTISSVQAEDLAVYYCQNDYNYPFTFGSGTKLEIK
modifications: polysialic acid (PSA) conjugated; site and chain not stated; polysialic acid (PSA, 30 to 90 sialic acid units) conjugated by periodate oxidation and sodium cyanoborohydride; site and chain not stated
notes: also called PSA-conjugated IgG anti-Aβ; conjugated IgG antibodies
B2: MDT-2007 (composite human antibody sequence variant VH4/VK2) (antibody, V domains shown)
VH: QVQLVQSGAEVKKPGASVKVSCTASGFNIKDTYIHWVRQARGQRLEWIGRFDPVNVNTRYDSRFRGRVTITSDASTNTAYMELSSLRSEDTAVYYCSRSYYNGRRRFTYWGQGTLVTVSS
VL: B1 VL with V13A, T14S, A15V, E17D, K18R, A20T, L21I, V84L, L89V, S106Q
notes: Human IgG1/kappa (pANT15/pANT13)
B3: composite human antibody variant VH3/VK3 (antibody, human IgG1, V domains shown)
VH: B2 VH with V68A
VL: DIVMTQSPSSLTASVGDRVTITCKASQSLLSSGNQKNYLTWYQQKPGQPPKLLIYWASIRESGVPDRFSGSGSGTDFTLTISSLQAEDVAVYYCQNDYNYPFTFGQGTKLEIK
notes: Human IgG1/kappa (pANT15/pANT13); Tested as quantified NS0 supernatant
B4: composite human antibody variant VH4/VK3 (antibody, human IgG1, V domains shown)
VH: B2 VH
VL: B3 VL
notes: as for B3
B5: composite human antibody variant VH2/VK3 (antibody, human IgG1, V domains shown)
VH: B2 VH with Q1E, V68A
VL: B3 VL
notes: as for B3
B6: composite human antibody variant VH1/VK3 (antibody, human IgG1, V domains shown)
VH: B2 VH with Q1E, V11L, R41P, V68A
VL: B3 VL
notes: as for B3
B7: composite human antibody variant VH5/VK3 (antibody, human IgG1, V domains shown)
VH: B2 VH with N77S
VL: B3 VL
notes: as for B3
B8: composite human antibody variant VH2/VK2 (antibody, human IgG1, V domains shown)
VH: B2 VH with Q1E, V68A
VL: B3 VL with S69T, D76F
notes: as for B3
B9: composite human antibody variant VH5/VK1 (antibody, human IgG1, V domains shown)
VH: B2 VH with N77S
VL: B3 VL with S9D, A13V, V15L, D17E, V19A, T22N, S69T, D76F
notes: as for B2
B10: composite human antibody variant VH5/VK2 (antibody, human IgG1, V domains shown)
VH: B2 VH with N77S
VL: B3 VL with S69T, D76F
notes: as for B2
B11: composite human antibody variant VH4/VK1 (antibody, human IgG1, V domains shown)
VH: B2 VH
VL: B3 VL with S9D, A13V, V15L, D17E, V19A, T22N, S69T, D76F
notes: as for B2
B12: composite human antibody variant VH1/VK1 (antibody, human IgG1, V domains shown)
VH: B2 VH with Q1E, V11L, R41P, V68A
VL: B3 VL with S9D, A13V, V15L, D17E, V19A, T22N, S69T, D76F
notes: as for B3
B13: chimeric 6E10 antibody (mouse 6E10 V regions, human IgG1/kappa constant regions) (antibody, V domains shown)
VH: B1 VH
VL: B1 VL
notes: also called chimeric mouse 6E10 antibody; chimeric antibody

biological target: T1, Abeta42 beta amyloid peptide (UniProt P05067 672-713); experiment: western immunoblot of Aβ42 peptide, antibody at 1000-fold dilution
T1 construct: domain: Abeta42; also called Aβ42; beta amyloid (Covance)
Experimental: (§1) The resulting conjugated antibodies (IgG and F(ab)₂ fragments) were subjected to dialysis to separate conjugated from unconjugated antibodies. The conjugated IgG antibodies were tested for their ability to bind amyloid beta (Aβ40 and Aβ42), using a western immunoblotting assay. In brief, Aβ40 or Aβ42 peptides (0.5 μg in diluent; Covance) were diluted in 4 μl nanopure water and prepared with 2× sample buffer to run through 4-20% Pierce Precise Protein Gel at 55V for 15 min, and then at 100V for 55 min. The proteins were then transferred onto 0.2 μm nitrocellulose membrane at 6V for 30 min. The membrane was blocked with a solution of dried milk powder (5% in Tris-buffered saline with Tween20; TBST, 1 L distilled water, 8 g NaCl, 2.4 g Tris, pH 7.5 with HCl, 1 mL Tween20). Membranes were then incubated overnight with a 1000-fold dilution of unconjugated or PSA-conjugated 6E10 IgG or F(ab′)₂ preparations, washed thrice with TBST for 5 min each, incubated with 1:2000 dilution of HRP-conjugated goat anti-mouse secondary antibody, and washed twice again with TBST for 10 min each. The chemiluminescent signal was developed with ECL-Plus reagent and the membranes were exposed to Kodak films to illustrate the bands.

T1 sequence (P05067 672-713 limits assumed): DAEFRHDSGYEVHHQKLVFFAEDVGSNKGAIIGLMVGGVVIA

B1: binds.

biological target: T1, Abeta42 beta amyloid peptide; experiment: competition ELISA on coated beta amyloid, NS0 supernatant; competitor biotinylated mouse 6E10
Experimental: 100 μl of the antibody mixes were transferred into the wells of Immulon Maxisorb plates precoated with 0.06125 μg/ml Abeta₄₂ beta amyloid peptide coated plates and incubated at room temperature for 1 hour. The plate was washed, and bound biotinylated mouse 6E10 was detected by adding a strepavidin-HRP conjugate (Sigma, Poole UK) (diluted at 1:500) and OPD substrate (Sigma, Poole UK). The assay was developed in the dark for 5 minutes before being stopped by the addition of 3M HCl. The assay plate was then read in a MRX TCII plate reader at absorbance 490 nm.
(§2) Binding of humanized variants were tested in the competition binding ELISA described in Example 1. Briefly, supernatants from the best expressing lines for each combination were quantified using an Fc capture, Kappa light chain detection ELISA in comparison to a IgG1/kappa standard. The quantified supernatants were then tested in a competition ELISA for binding to their target antigen, beta amyloid. 96 well maxisorb plates (Nunc-Fisher Scientific, Loughborough, UK) were coated overnight at 4° C. with 50 μl/well of 0.06125 μg/ml beta amyloid (Covance, UK) in carbonate buffer pH 9.6. […] The titrations, 50 μl/well, were added to washed (3× with PBS pH 7.4/0.5%BSA/0.05% Tween 20) assay plates and incubated at room temperature for 1 hour. Plates were washed as above and 100 μl/well of a 1/500 dilution of streptavidin HRP (Sigma, Poole, UK) in PBS pH 7.4/0.5% BSA/0.05% Tween was added and incubated for a further 1 hour at room temperature. […] After stopping the reaction with 50 μl/well 3M HCl, absorbance was measured at 450 nm and the binding curves of the test antibodies were compared to the mouse reference standard. Absorbance was plotted against sample concentration and straight lines were fitted through each of the data sets.

Compared with B2, B3 is higher in “fold difference in IC50 relative to mouse 6E10 (Binding Efficiencies Relative to Mouse MDT-2007)” value: 0.67 fold for the first, 1.57 fold for the second.

Compared with B4, B5 is lower in “fold difference in IC50 relative to mouse 6E10 (Binding Efficiencies Relative to Mouse MDT-2007)” value: 1.36 fold for the first, 0.96 fold for the second.

Compared with B6, B7 is lower in “fold difference in IC50 relative to mouse 6E10 (Binding Efficiencies Relative to Mouse MDT-2007)” value: 1.93 fold for the first, 1.02 fold for the second.

First: B8
Second: B9
The “fold difference in IC50 relative to mouse 6E10 (Binding Efficiencies Relative to Mouse MDT-2007)” value of the first is higher: 1.1 fold for the first, 0.8 fold for the second.

Compared with B10, B11 is higher in “fold difference in IC50 relative to mouse 6E10 (Binding Efficiencies Relative to Mouse MDT-2007)” value: 0.72 fold for the first, 0.94 fold for the second.

For B12, the “fold difference in IC50 relative to mouse 6E10 (Binding Efficiencies Relative to Mouse MDT-2007)” value was 0.78 fold.

biological target: T1, Abeta42 beta amyloid peptide; experiment: competition ELISA on coated beta amyloid, purified antibody, n=2; competitor biotinylated chimeric mouse 6E10
Experimental: as §2
The purified antibodies were tested for binding to beta amyloid via competition ELISA as described above (n=2). Titrations of the test antibodies were done from 0.003 μg/ml to 16 μg/ml in duplicate. Absorbance at 450 nm was measured and this was plotted against test antibody concentration.

Compared with B2, B13 is higher in “Fold Difference (IC50 normalized to the reference)” value: 0.57 fold for the first, 1 fold for the second.

Compared with B9, B10 is lower in “Fold Difference (IC50 normalized to the reference)” value: 0.91 fold for the first, 0.72 fold for the second.

In the case of B11, the “Fold Difference (IC50 normalized to the reference)” value is reported as 1.14 fold.

Going from B2 to B13, the IC50 rises from 2.1 µg/mL to 3.6 µg/mL (1.7-fold).

B9 and B10 are within 1.5-fold of each other in IC50: 3.3 µg/mL for the first, 2.6 µg/mL for the second.

Binder B11 has an IC50 of 4.1 µg/mL.

biological target: T2, Aβ40 peptide (UniProt P05067 672-711); experiment: western immunoblot of Aβ40 peptide, antibody at 1000-fold dilution
T2 construct: domain: Aβ40; also called amyloid beta
Experimental: as §1

T2 sequence (P05067 672-711 limits assumed): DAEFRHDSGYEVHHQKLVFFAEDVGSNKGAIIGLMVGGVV

B1: binds.

biological target: T1, Abeta42 beta amyloid peptide; experiment: competition ELISA on coated beta amyloid, purified antibody (Table 4 experiment)
Experimental: as §2, with “hour.” for “hour. Plates were washed as above and 100 μl/well of a 1/500 dilution of streptavidin HRP (Sigma, Poole, UK) in PBS pH 7.4/0.5% BSA/0.05% Tween was added and incubated for a further 1 hour at room temperature.”
The purified antibodies were tested for binding to beta amyloid via competition ELISA as described above (n=2). […] Absorbance at 450 nm was measured and this was plotted against test antibody concentration.

With B2 the “fold increase in binding compared to the mouse reference” value was 1.72 fold.
